Columns and labels:
[1] = system: HpARI1 (Heligmosomoides polygyrus bakeri); assay: EMSA; settings: pH 7.5, 30 min, room temperature
[2] = molecular target: IL-33 (mouse) (mouse (endogenous in BALB/c mice and CMT-64 cells)) (UniProt Q8BVZ5)
Sequence of UniProt Q8BVZ5 (Q8BVZ5 whole entry): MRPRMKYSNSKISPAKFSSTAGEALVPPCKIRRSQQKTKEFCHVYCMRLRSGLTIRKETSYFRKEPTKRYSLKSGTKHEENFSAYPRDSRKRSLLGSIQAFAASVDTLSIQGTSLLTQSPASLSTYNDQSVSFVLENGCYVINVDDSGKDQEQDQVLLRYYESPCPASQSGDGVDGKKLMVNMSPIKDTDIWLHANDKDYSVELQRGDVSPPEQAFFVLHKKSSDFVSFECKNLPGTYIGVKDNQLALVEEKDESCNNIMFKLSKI

AACTTTGCCATTGTGGAAGG / CCTTCCACAATGCCAAAGTT [IR700 EMSA oligonucleotide probe]
binding signal [1]: 50 % DNA bound

HpARI2 (natural protein)
IC50 of suppression of IL-5 production from bone marrow cells (IL-2, IL-7, freeze-thawed CMT-64 supernatants; IL-33-mediated ILC2 activation) [2]: 1.9 ng/mL

HpARI2:3 fusion protein (CCP1 domain of HpARI2 fused to the CCP2+3 domains of HpARI3)
EC50 of amplification of IL-5 production from bone marrow cells (IL-2, IL-7, freeze-thawed CMT-64 supernatants; IL-33-mediated ILC2 activation) [2]: 21.5 ng/mL

HpARI3 (natural protein)
EC50 of amplification of IL-5 production from bone marrow cells (IL-2, IL-7, freeze-thawed CMT-64 supernatants; IL-33-mediated ILC2 activation) [2]: 1.2 ng/mL

HpARI3:2 fusion protein (CCP1 domain of HpARI3 fused to the CCP2+3 domains of HpARI2)
IC50 of suppression of IL-5 production from bone marrow cells (IL-2, IL-7, freeze-thawed CMT-64 supernatants; IL-33-mediated ILC2 activation) [2]: 1.1 ng/mL

From article PMC11548879
